This series in a line: protein stability index of a GFP-peptide fusion (GPS, HEK-293T) (PSI 1-6); higher = more stable. The note with it: c terminus: a fixed tail appended.

From the supplement of paper PMC10567573 come the findings set out here.

± gives the standard deviation.
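Note: 24-mer peptide tiles fused after GFP, lentivirally expressed, FACS-sorted into six equal bins by GFP/DsRed ratio, decoded by Illumina sequencing, PSI is the read-weighted mean bin number.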

In turn, HVTNAMVLVNVLQAIYVIDFFWNE [DHCR7] displayed a protein stability index (treatment: DMSO) of 3.08 ± 0.17 and a protein stability index (treatment: MLN4924 1 uM, 8 h) of 2.99 ± 0.34.

With HWACKRNHGQVVSYLLKSGADKEI [ANKRD40], the protein stability index by setting is: (treatment: DMSO) 2.59 ± 0.24; (treatment: MLN4924 1 uM, 8 h) 2.66 ± 0.28.

HYAFRIFDFDDDGTLNREDLSRLV [CIB1] showed a protein stability index (treatment: DMSO) of 2.55 ± 0.24 and a protein stability index (treatment: MLN4924 1 uM, 8 h) of 2.78 ± 0.31.

In the case of HYDLLNLNGTKVAEGHKASFCLED [LOXL2], the protein stability index was found to be 4.12 ± 0.5 (treatment: DMSO) and 4.26 ± 0.34 (treatment: MLN4924 1 uM, 8 h).

ICDLARSIDFNKDGHIDINEFLEA [PPEF2]: the protein stability index is, setting by setting: (treatment: DMSO) 3.6 ± 0.31; (treatment: MLN4924 1 uM, 8 h) 4.04 ± 0.21.

Turning to IDYYESKIRKIHTQRQYKEDESQS [CEP70], the protein stability index was determined as 4.08 ± 0.084 (treatment: DMSO) and 4.2 ± 0.1 (treatment: MLN4924 1 uM, 8 h).

Consider IEAGAHMDATNAFKKTAYELLDEK [FEM1A], for which the protein stability index is, setting by setting: (treatment: DMSO) 4.79 ± 0.21; (treatment: MLN4924 1 uM, 8 h) 5.04 ± 0.34.

With IEDLRAQIFANTVDNARIVLQIDN [KRT18], the protein stability index runs as follows: (treatment: DMSO) 2.6 ± 0.24; (treatment: MLN4924 1 uM, 8 h) 2.67 ± 0.35.

For IETEPTVHHLPLSTEKVVQETVLV [EPB41L3], the protein stability index runs as follows: (treatment: DMSO) 4 ± 0.11; (treatment: MLN4924 1 uM, 8 h) 3.84 ± 0.28.

As for IETLRLAKNYIWALSEILRIGKRP [NEUROD6], the protein stability index reads like this: (treatment: DMSO) 3.08 ± 0.73; (treatment: MLN4924 1 uM, 8 h) 2.65 ± 0.57.

On to IFCRDTQTVFQKKNLQQTTNTTST [IQUB], for which the protein stability index (treatment: DMSO) is 3.32 ± 0.34 and the protein stability index (treatment: MLN4924 1 uM, 8 h) was found to be 3.66 ± 0.26.

As to IFIIQACRGNQHDVPVIPLDVVDN [CASP6], the protein stability index runs as follows: (treatment: DMSO) 2.71 ± 0.59; (treatment: MLN4924 1 uM, 8 h) 2.49 ± 0.7.

Take IGGVATVVCQPNEFIMPDSAVVGD [SEPHS2]: the protein stability index was 3.72 ± 0.34 (treatment: DMSO) and 3.76 ± 0.44 (treatment: MLN4924 1 uM, 8 h).

With IGIPLFFLELAVGQRIRRGSIGVW [SLC6A17], the protein stability index by setting is: (treatment: DMSO) 2.51 ± 0.34; (treatment: MLN4924 1 uM, 8 h) 2.28 ± 0.23.

On to IGVAGNHWDGYSKGVNRKLGRTGL [FUT8], for which the protein stability index by setting is: (treatment: DMSO) 3.1 ± 0.16; (treatment: MLN4924 1 uM, 8 h) 2.9 ± 0.18.

For the sequence IHDALLEAVTCGNTEVPARNLYAY [PTPRD], the protein stability index runs as follows: (treatment: DMSO) 2.29 ± 0.35; (treatment: MLN4924 1 uM, 8 h) 2.39 ± 0.14.

IHSHHDGVLRPTVRPGTPPDFILK [CTDNEP1]: the protein stability index reads like this: (treatment: DMSO) 3.66 ± 0.18; (treatment: MLN4924 1 uM, 8 h) 3.72 ± 0.21.

As for IITIGYNVYHSYDLPWFRTLSWYF [CDS2], the protein stability index reads like this: (treatment: DMSO) 3.08 ± 0.23; (treatment: MLN4924 1 uM, 8 h) 3.2 ± 0.27.

Consider IITSRILVDQVTGVSRGVGFIRFD [ELAVL3], for which the protein stability index runs as follows: (treatment: DMSO) 2.42 ± 0.53; (treatment: MLN4924 1 uM, 8 h) 2.53 ± 0.28.

Regarding IIVSIVHSVFEFLAFKNDIQFWNS [CLPTM1], the protein stability index is, setting by setting: (treatment: DMSO) 3.5 ± 0.83; (treatment: MLN4924 1 uM, 8 h) 2.75 ± 0.65.

Consider IKGKEGSALTEGAKEEGGEEVAKA [EPB41L3], for which the protein stability index is, setting by setting: (treatment: DMSO) 5.81 ± 0.17; (treatment: MLN4924 1 uM, 8 h) 5.86 ± 0.12.

ILAFLVLEAVAGALVVALWGPLQD [TSPAN10]: the protein stability index is 2.85 ± 0.24 (treatment: DMSO) and 3.03 ± 0.27 (treatment: MLN4924 1 uM, 8 h).

For the sequence ILDIHFLSQADFLVCTFSSQVCRV [FUT8], the protein stability index (treatment: DMSO) worked out at 3.52 ± 0.23 and the protein stability index (treatment: MLN4924 1 uM, 8 h) is 3.09 ± 0.16.

In the case of ILHLICLLEKVPCTLEQDHFKKQT [FEM1C], the protein stability index was found to be 2.82 ± 0.71 (treatment: DMSO) and 2.25 ± 0.45 (treatment: MLN4924 1 uM, 8 h).

With ILISFTCRFLLNSRVTDAAFNFLL [TMEM120A], the protein stability index was determined as 2.9 ± 0.38 (treatment: DMSO) and 3.25 ± 0.23 (treatment: MLN4924 1 uM, 8 h).

As for ILKRTGQRYEHGRTLKSYLGLTNQ [ZNF649], the protein stability index runs as follows: (treatment: DMSO) 2.44 ± 0.24; (treatment: MLN4924 1 uM, 8 h) 2.63 ± 0.099.

As to ILTTSNITEKIDVAFVDRADIKQY [TRIP13], the protein stability index reads like this: (treatment: DMSO) 2.88 ± 0.2; (treatment: MLN4924 1 uM, 8 h) 3.02 ± 0.12.

For the sequence ILVLKTDSQDLVASFRVTTGTSNT [RBBP5], the protein stability index was found to be 2.2 ± 0.41 (treatment: DMSO) and 2.36 ± 0.53 (treatment: MLN4924 1 uM, 8 h).

For IMLRSNESFTMDDMSWTCGNQDYK [VDR], the protein stability index (treatment: DMSO) worked out at 2.86 ± 0.12 and the protein stability index (treatment: MLN4924 1 uM, 8 h) is 2.61 ± 0.27.

Turning to INLATMNSCINPIALYFVSKKFKN [EDNRA], the protein stability index reads like this: (treatment: DMSO) 2.83 ± 1.4; (treatment: MLN4924 1 uM, 8 h) 2.01 ± 0.13.

Consider IPAVLTVSMLGYPFILPDMVGGNA [MYORG], for which the protein stability index is, setting by setting: (treatment: DMSO) 2.87 ± 0.51; (treatment: MLN4924 1 uM, 8 h) 2.63 ± 0.38.

Regarding IPISLETQAHIQECKHPSVFQHGD [MCOLN1], the protein stability index is, setting by setting: (treatment: DMSO) 4.26 ± 0.23; (treatment: MLN4924 1 uM, 8 h) 4.21 ± 0.14.

In the case of IQAEERLDMEKRRCRQSLEDSESL [LRRC45], the protein stability index reads like this: (treatment: DMSO) 5.08 ± 0.27; (treatment: MLN4924 1 uM, 8 h) 5.16 ± 0.1.

As to IQKRNQRQSGDRRQLPPPPTPANE [WAS], the protein stability index is 5.29 ± 0.23 (treatment: DMSO) and 5.16 ± 0.21 (treatment: MLN4924 1 uM, 8 h).

IRQLATSGRFIVIIPRTVIDGLDL [SMG5]: the protein stability index runs as follows: (treatment: DMSO) 2.88 ± 0.61; (treatment: MLN4924 1 uM, 8 h) 2.68 ± 0.7.

In turn, IRSFGHFIARLQGSILQFNPEVGI [SMG5] displayed a protein stability index (treatment: DMSO) of 2.45 ± 0.27 and a protein stability index (treatment: MLN4924 1 uM, 8 h) of 2.35 ± 0.25.
